The target in test [1] is T1, B-cat-Halo (UniProt P35222 1-781).
T1 sequence (looked up): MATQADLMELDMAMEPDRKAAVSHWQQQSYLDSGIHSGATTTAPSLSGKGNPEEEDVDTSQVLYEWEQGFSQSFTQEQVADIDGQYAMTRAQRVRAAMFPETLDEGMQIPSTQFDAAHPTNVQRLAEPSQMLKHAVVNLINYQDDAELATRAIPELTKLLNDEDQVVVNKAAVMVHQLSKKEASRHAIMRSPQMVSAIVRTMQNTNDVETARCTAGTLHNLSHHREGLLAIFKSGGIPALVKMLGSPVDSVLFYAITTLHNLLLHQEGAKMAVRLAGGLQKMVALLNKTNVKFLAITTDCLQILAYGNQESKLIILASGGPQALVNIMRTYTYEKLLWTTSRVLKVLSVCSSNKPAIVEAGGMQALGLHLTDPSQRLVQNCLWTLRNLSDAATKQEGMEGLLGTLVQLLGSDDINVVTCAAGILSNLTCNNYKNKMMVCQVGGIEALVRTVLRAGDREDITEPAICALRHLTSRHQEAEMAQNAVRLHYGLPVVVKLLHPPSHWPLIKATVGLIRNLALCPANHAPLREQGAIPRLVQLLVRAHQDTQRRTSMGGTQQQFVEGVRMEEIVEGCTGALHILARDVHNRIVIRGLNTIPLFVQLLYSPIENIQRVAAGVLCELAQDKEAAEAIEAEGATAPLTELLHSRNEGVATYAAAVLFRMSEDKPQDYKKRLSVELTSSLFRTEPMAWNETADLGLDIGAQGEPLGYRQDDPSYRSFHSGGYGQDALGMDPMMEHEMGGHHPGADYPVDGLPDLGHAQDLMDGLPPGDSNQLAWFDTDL
The test is described as follows: cell-based or functional assay.

In test [2] the target is T2, full-length beta-Catenin (Uniprot ID P35222) (Homo sapiens (Human), UniProt P35222 1-781).
T2 construct: Said to be full-length in the fluorescence polarization assay; also called bCat; B-Catenin
T2 sequence: T1 sequence (looked up)
Briefly: fluorescence polarization competition; peptide titrated against 10 nM full-length beta-catenin + 10 nM 5FAM-TCF4(10-53) probe. Here is the method: The plate was incubated protected from light for 60 minutes at 20° C. prior to read. Reads were performed on a CLARIOstar plate reader (BMG Labtech) in duplicate, and data were fitted to a 1:1 binding model with hill slope using an in-house script. All provided concentrations are final concentrations.

Test [3] concerns the target T3, B-cat-Halo (UniProt P35222 1-781).
T3 sequence (looked up): T1 sequence (looked up)
Briefly: cell-based or functional assay. The source holds these as a separate data set.

This is an account of results in US20240116985A1 (published 2024).

Starred links: 1 amine or outer side, 2 acyl side, 3 side chain; linkers in the order of their positions; H or OH if unused. Positions of bridges follow the written chain, without caps; N, C: chain ends. Non-standard residues stand in square brackets, D forms with d. Primed or numbered codes have the meaning given here. (4CF3PhAc)GAbu = (S)-2-amino-4-(N-(carboxymethyl)-2-(4-(trifluoromethyl)phenyl)acetamido)butanoic acid, O=C(Cc1ccc(C(F)(F)F)cc1)N(CC[C@H](N[*:1])C(=O)[*:2])CC(=O)[*:3]; PyrS2″ = (S)-3-amino-1-((pent-4-en-1-yloxy)carbonyl)pyrrolidine-3-carboxylic acid (stapling residue), C=CCCCOC(=O)N1CC[C@@](N[*:1])(C(=O)[*:2])C1; (MorphAc)GAbu = (S)-2-amino-4-(N-(carboxymethyl)-2-morpholinoacetamido)butanoic acid, O=C(CN1CCOCC1)N(CC[C@H](N[*:1])C(=O)[*:2])CC(=O)[*:3]; B5(16) = 2-amino-2-(pent-4-en-1-yl)hept-6-enoic acid = 2,2-bis(4-pentenyl)glycine (stitching residue), C=CCCCC(CCCC=C)(N[*:1])C(=O)[*:2]; PyrS2 = (S)-3-amino-1-((pent-4-en-1-yloxy)carbonyl)pyrrolidine-3-carboxylic acid, C=CCCCOC(=O)N1CC[C@@](N[*:1])(C(=O)[*:2])C1; (Me)GA″ = [Me]GA: (S)-2-amino-3-((carboxymethyl)(methyl)amino)propanoic acid, CN(CC(=O)[*:3])C[C@H](N[*:1])C(=O)[*:2]; B5(9) = 2-amino-2-(pent-4-en-1-yl)hept-6-enoic acid (2,2-bis(4-pentenyl)glycine), C=CCCCC(CCCC=C)(N[*:1])C(=O)[*:2]; B5(22) = 2-amino-2-(pent-4-en-1-yl)hept-6-enoic acid (two alkene side chains), C=CCCCC(CCCC=C)(N[*:1])C(=O)[*:2]; (Me)GA = (S)-2-amino-3-((carboxymethyl)(methyl)amino)propanoic acid, CN(CC(=O)[*:3])C[C@H](N[*:1])C(=O)[*:2]; B5(3) = 2,2-bis(4-pentenyl)glycine (stitching residue), C=CCCCC(CCCC=C)(N[*:1])C(=O)[*:2]; Bta = N[C@@H](Cc1csc2ccccc12)C(=O)O; αAllylPro = C=CC[C@@]1(C(=O)O)CCCN1; tBuAla = CC(C)(C)C[C@H](N)C(=O)O; 3Thi = N[C@@H](Cc1ccsc1)C(=O)O; S8 = C=CCCCCCC[C@](C)(N)C(=O)O

Take Ac-[αAllylPro]D[tBuAla][B5(22)]D[(MorphAc)GAbu]AAFL[PyrS2][3Thi][Bta]Q-NH2 (staple 1-4, 4-11) [I-2249]: the “NanoBRET Abs IC50” value in test [1] was determined as 42200 nM.

For Ac-[αAllylPro]D[tBuAla][B5(22)]D[(4CF3PhAc)GAbu]AAFL[PyrS2][3Thi][Bta]Q-NH2 (staple 1-4, 4-11) [I-2246], the “NanoBRET Abs IC50” value in test [1] came to 12900 nM.

B1: I-613 (peptide)
peptide: XDIXDRAAFQXFXQ
modifications: not fully specified; Ac-PL3-Asp-Ile-B5-Asp-Arg-Ala-Ala-Phe-Gln-S8-Phe-BztA-Gln-NH2; N-terminal acetyl, C-terminal amide; non-natural PL3 (1), B5 (4), S8 (11), BztA (13); staples PL3-B5 and B5-S8 by olefin metathesis
notes: Stapled peptide; Earlier-eluting staple isomer composition
Turning to B1, in test [2], the EC50 was 1630 nM.

B2: I-614 (peptide)
peptide: XDIXDRAAFQXFXQ
modifications: not fully specified; Ac-PL3-Asp-Ile-B5-Asp-Arg-Ala-Ala-Phe-Gln-S8-Phe-BztA-Gln-NH2; N-terminal acetyl, C-terminal amide; non-natural PL3 (1), B5 (4), S8 (11), BztA (13); staples PL3-B5 and B5-S8 by olefin metathesis
notes: Stapled peptide; Later-eluting staple isomer composition
For B2, in test [2], the EC50 was determined as 1140 nM.

Turning to Ac-[αAllylPro]D[tBuAla][B5(3)]D[(Me)GA]AAFN[PyrS2][3Thi][Bta]Q-NH2 (staple 1-4, 4-11; also: earlier eluting staple isomer) [I-1636], the “NanoBRET Abs IC50” value in test [3] is over 20000 nM.

In the case of Ac-[αAllylPro]D[tBuAla][B5(3)]D[(Me)GA″]AAFL[PyrS2″][3Thi][Bta]Q-NH2 (staple 1-4, 4-11) [I-1631], in test [3], the “NanoBRET Abs IC50” value was found to be 30100 nM.

B3: I-637 (peptide)
peptide: XDIXDEAAFQXFXP
modifications: not fully specified; Ac-PL3-Asp-Ile-B5-Asp-Glu-Ala-Ala-Phe-Gln-S8-Phe-BztA-Pro-NH2; N-terminal acetyl, C-terminal amide; non-natural PL3 (1), B5 (4), S8 (11), BztA (13); staples PL3-B5 and B5-S8 by olefin metathesis
notes: as for B1
Regarding B3, the EC50 in test [2] came to 5000 nM.

B4: I-640 (peptide)
peptide: XDIXDEAAFQXFXS
modifications: not fully specified; Ac-PL3-Asp-Ile-B5-Asp-Glu-Ala-Ala-Phe-Gln-S8-Phe-BztA-Ser-NH2; N-terminal acetyl, C-terminal amide; non-natural PL3 (1), B5 (4), S8 (11), BztA (13); staples PL3-B5 and B5-S8 by olefin metathesis
notes: as for B2
For B4, the EC50 in test [2] worked out at 87 nM.

Ac-[αAllylPro]DI[B5(16)]DEAAFQ[S8]F[Bta]R-NH2 (staple 1-4, 4-11, Stapled peptide) [I-633]: the EC50 in test [2] is 88 nM.

Take Ac-[αAllylPro]DI[B5(16)]DEAAFQ[S8]F[Bta]L-NH2 (staple 1-4, 4-11, Stapled peptide) [I-634]: in test [2], the EC50 was found to be 425 nM.

B5: I-643 (peptide)
peptide: Ac-[αAllylPro]DI[B5(9)]DEAAFQ[S8]F[Bta]W-NH2
modifications: staple 1-4, 4-11
notes: as for B1
For the molecule B5, the EC50 in test [2] amounted to 958 nM.

B6: I-641 (peptide)
peptide: XDIXDEAAFQXFXT
modifications: not fully specified; Ac-PL3-Asp-Ile-B5-Asp-Glu-Ala-Ala-Phe-Gln-S8-Phe-BztA-Thr-NH2; N-terminal acetyl, C-terminal amide; non-natural PL3 (1), B5 (4), S8 (11), BztA (13); staples PL3-B5 and B5-S8 by olefin metathesis
notes: as for B1
Consider B6, for which, in test [2], the EC50 turned out to be 122 nM.

B7: I-644 (peptide)
peptide: Ac-[αAllylPro]DI[B5(9)]DEAAFQ[S8]F[Bta]W-NH2
modifications: staple 1-4, 4-11
notes: as for B2
For B7, the EC50 in test [2] stood at 808 nM.

For the molecule Ac-[αAllylPro]DI[B5(16)]DEAAFQ[S8]F[Bta]Y-NH2 (staple 1-4, 4-11, Stapled peptide) [I-636], in test [2], the EC50 was 198 nM.

B8: I-639 (peptide)
peptide: XDIXDEAAFQXFXS
modifications: not fully specified; Ac-PL3-Asp-Ile-B5-Asp-Glu-Ala-Ala-Phe-Gln-S8-Phe-BztA-Ser-NH2; N-terminal acetyl, C-terminal amide; non-natural PL3 (1), B5 (4), S8 (11), BztA (13); staples PL3-B5 and B5-S8 by olefin metathesis
notes: as for B1
On to B8, for which, in test [2], the EC50 is 109 nM.

B9: I-642 (peptide)
peptide: XDIXDEAAFQXFXT
modifications: not fully specified; Ac-PL3-Asp-Ile-B5-Asp-Glu-Ala-Ala-Phe-Gln-S8-Phe-BztA-Thr-NH2; N-terminal acetyl, C-terminal amide; non-natural PL3 (1), B5 (4), S8 (11), BztA (13); staples PL3-B5 and B5-S8 by olefin metathesis
notes: as for B2
Turning to B9, in test [2], the EC50 worked out at 118 nM.
